# Assay results: patent publication US9988424 (DUKE UNIVERSITY, dated 2018)
# T1: A.9004SS V1/V2 tags
# T1 V1V2 tags construct: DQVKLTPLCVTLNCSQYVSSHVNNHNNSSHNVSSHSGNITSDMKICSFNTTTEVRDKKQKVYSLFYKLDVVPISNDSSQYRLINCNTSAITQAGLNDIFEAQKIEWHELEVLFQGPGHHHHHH
# T2: gp70 B.CaseA2 V1/V2 (HIV-1 V1V2 on murine leukemia virus gp70)
# T2 construct: also called B.gp70CaseA2 V1/V2; gp70 B.CaseAV1V2
# T2 chain: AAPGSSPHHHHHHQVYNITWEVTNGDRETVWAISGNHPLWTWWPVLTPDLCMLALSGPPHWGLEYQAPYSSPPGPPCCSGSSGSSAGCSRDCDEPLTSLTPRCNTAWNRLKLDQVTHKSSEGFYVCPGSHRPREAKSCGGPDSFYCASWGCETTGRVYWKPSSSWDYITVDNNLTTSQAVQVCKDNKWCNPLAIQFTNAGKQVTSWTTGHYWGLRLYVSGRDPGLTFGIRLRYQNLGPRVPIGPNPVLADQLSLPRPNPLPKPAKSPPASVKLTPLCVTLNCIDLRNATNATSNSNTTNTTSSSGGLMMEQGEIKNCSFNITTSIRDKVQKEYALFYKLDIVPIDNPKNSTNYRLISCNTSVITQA
# T3: gp70 C.1086 V1/V2 (HIV-1 V1V2 on murine leukemia virus gp70)
# T3 construct: also called C.gp70 1086C V1V2; C.1086gp70V1V2
# T3 chain: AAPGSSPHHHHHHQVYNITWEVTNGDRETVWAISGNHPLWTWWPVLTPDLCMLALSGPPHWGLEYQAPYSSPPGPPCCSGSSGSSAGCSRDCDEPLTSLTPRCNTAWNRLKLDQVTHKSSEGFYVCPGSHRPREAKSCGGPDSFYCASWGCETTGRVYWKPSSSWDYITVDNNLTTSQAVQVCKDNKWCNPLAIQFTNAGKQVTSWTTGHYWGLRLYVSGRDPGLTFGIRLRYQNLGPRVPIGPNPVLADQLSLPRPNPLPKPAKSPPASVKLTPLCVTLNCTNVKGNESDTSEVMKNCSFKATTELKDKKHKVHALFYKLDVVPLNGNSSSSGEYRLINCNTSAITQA
# T4: SIV CPZ US-1 gp140CF (SIVcpz)
# T4 construct: also called US-1 SIVCPZ gp140CF
# T4 chain: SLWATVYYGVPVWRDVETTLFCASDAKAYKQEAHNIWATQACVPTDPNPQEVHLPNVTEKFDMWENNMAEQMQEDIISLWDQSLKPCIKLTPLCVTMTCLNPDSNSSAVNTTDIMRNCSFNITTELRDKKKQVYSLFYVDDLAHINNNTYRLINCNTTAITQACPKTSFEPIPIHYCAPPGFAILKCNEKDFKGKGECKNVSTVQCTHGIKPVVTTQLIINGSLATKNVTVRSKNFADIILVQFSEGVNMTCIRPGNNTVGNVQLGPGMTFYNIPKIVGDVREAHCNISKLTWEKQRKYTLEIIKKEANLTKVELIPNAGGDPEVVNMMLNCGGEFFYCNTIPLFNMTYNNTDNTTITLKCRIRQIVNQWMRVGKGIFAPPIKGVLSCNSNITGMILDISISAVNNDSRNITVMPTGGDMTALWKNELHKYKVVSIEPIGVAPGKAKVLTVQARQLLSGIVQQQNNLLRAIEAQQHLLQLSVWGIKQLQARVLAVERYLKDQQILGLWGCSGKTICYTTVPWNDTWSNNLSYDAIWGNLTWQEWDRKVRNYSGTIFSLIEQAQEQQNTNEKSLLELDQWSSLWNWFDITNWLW
# B1: CH01 RUA 1 (antibody, V domains shown)
# VH: EVQLVESGGGVVRPGGSLRLSCAASGFTFDDYGMSWVRQAPGKGLEWVSGINWNGGSTGYADSVKGRFTISRDNAKNSLYLQMNSLRAEDTALYYCARGTDYTIDDQGIRYQGSGTFWYFDLWGRGTLVTVSS
# VL: not shown
# B2: CH01 RUA 2 (antibody, V domains shown)
# VH: EVQLVESGGGVVRPGGSLRLSCAASGFTFDDYGMSWVRQAPGKGLEWVSGINWNGGSTGYADSVKGRFTISRDNAKNSLYLQMNSLRAEDTALYYCARGTDYTIDDQGILYQGSGTFWYFDLWGRGTLVTVSS
# VL: not shown
# B3: CH01 UA3 (antibody, V domains shown)
# VH: EVQLVESGGGVVRPGGSLRLSCAASGFTFDDYGMSWVRQAPGKGLEWVSGINWNGGSTGYADSVKGRFTISRDNAKNSLYLQMNSLRAEDTALYHCARGTDYTIDDQGIHYYGSGTYWYFDLWGRGTLVTVSS
# VL: not shown
# B4: HG107 (antibody, V domains shown)
# VH: EVQLVESGGDLVQPGRSLRLSCAASGFTFDDYAMHWVRQAPGKGLEWISGISGNSGSRGYADSVKGRFTISRDNAKNSLYLQMNSLRAEDTALYYCATDGDRSGTTPLDHWGQGTRVTVSS
# VL: SYELTQPPSVSVSPGQTARITCSGDALPKNYAYWYQQKSGQAPALVIYEDSKRPSGIPERFSGSSSGTMATLTISGAQVEDEADYYCYSTDSSGTPSFGTGTKVTVL
# notes: also called mAb HG107
# B5: HG120 (antibody, V domains shown)
# VH: EVQLVESGGGLVQPGGSLRLSCAASGFTFSSYAMRWVRQAPGKGLEWVSGISGSGGSTYYADSVKGRFTISRDNSKITLYLQMDSLRVEDTAVYYCATAPLSYDSSTDYWGQGTLVTVSS
# VL: SYELTQPPSVSVSPGQTARITCSGDALPKKYAYWYQQKSGQAPVLVIYEDSKRPSGIPERFSGSSSGTMATLTISGAQVEDEADYYCYSTDSSGNPRFGRGTKLTVL
# notes: also called mAb HG120
# How the values were obtained:
# [1] = target: AE.A244 V1V2 Tags (HIV-1); assay: ELISA OD405nm, antibody at 33, 11.1 and 1.2 ug/ml
# [2] = target: AE.A244 V1V2 Tags (HIV-1); assay: ELISA OD405nm, bar chart, antibody concentration not given
# [3] = target: AE.A244 V1V2 Tags (HIV-1); assay: ELISA
# [4] = target: T5, AE.A244 gp120 delta 11 (HIV-1); assay: ELISA
# T5 construct: also called E.A244gp120Δ11; AE.A244 Δ11 gp120
# [5] = target: T1, A.9004SS V1/V2 tags; assay: ELISA, OD405 at 10 ug/ml
# [6] = target: AE.con gp140CF; assay: ELISA, OD405 at 10 ug/ml
# [7] = target: B.040 gp140C; assay: ELISA, OD405 at 10 ug/ml
# [8] = target: B.con gp140CF; assay: ELISA, OD405 at 10 ug/ml
# [9] = target: T6, C.1086 gp140; assay: ELISA, OD405 at 10 ug/ml
# T6 construct: also called C.1086gp140C
# [10] = target: Con 6 gp120; assay: ELISA, OD405 at 10 ug/ml
# [11] = target: G.con gp140CF; assay: ELISA, OD405 at 10 ug/ml
# [12] = target: C.CAP206 gp140CF.12 (HIV-1); assay: ELISA, OD405 at 10 ug/ml
# [13] = target: T2, gp70 B.CaseA2 V1/V2; assay: ELISA, OD405 at 10 ug/ml
# [14] = target: T3, gp70 C.1086 V1/V2; assay: ELISA, OD405 at 10 ug/ml
# [15] = target: T7, AE.97CNG2XF gp140CF (HIV-1); assay: ELISA, OD405 at 10 ug/ml
# T7 construct: also called E.97CNGX2F gp140CF
# [16] = target: T8, B.HXB/BAL gp140CFI (HIV-1, UniProt P04578 33-680); assay: ELISA, OD405 at 10 ug/ml
# T8 construct: also called B.HxB/Ba gp140 CFI
# [17] = target: T4, SIV CPZ US-1 gp140CF; assay: ELISA, OD405 at 10 ug/ml
# [18] = target: T9, AE.A244 gD+ gp120 (HIV-1); assay: ELISA
# T9 construct: domain: gp120; also called AE.A244 gp120gD+
# [19] = target: T10, AE.92TH023 gp120 gD+ (HIV-1); assay: ELISA
# T10 construct: domain: gp120; also called AE.92TH023 gp12 gD+
# [20] = target: T7, AE.97CNG2XF gp140CF; assay: ELISA
# [21] = target: T8, B.HXB/BAL gp140CFI; assay: ELISA
# [22] = target: B.9021 gp140C (HIV-1); assay: ELISA
# [23] = target: C.1086 gp120 (HIV-1); assay: ELISA
# [24] = target: T4, SIV CPZ US-1 gp140CF; assay: ELISA
binder,measurement,setting,value
B1,binding result,[1],binds
B2,binding result,[2],binds
B3,EC50,[3],18 nM
same,EC50,[4],9.3 nM
same,binding result,[5],no binding (tested: 10 ug/ml)
same,binding result,[6],no binding (tested: 10 ug/ml)
same,binding result,[7],no binding (tested: 10 ug/ml)
same,binding result,[8],no binding (tested: 10 ug/ml)
same,binding result,[9],no binding (tested: 10 ug/ml)
same,binding result,[10],no binding (tested: 10 ug/ml)
same,binding result,[11],no binding (tested: 10 ug/ml)
same,binding result,[12],no binding (tested: 10 ug/ml)
same,binding result,[13],no binding (tested: 10 ug/ml)
same,binding result,[14],no binding (tested: 10 ug/ml)
same,binding result,[15],no binding (tested: 10 ug/ml)
same,binding result,[16],no binding (tested: 10 ug/ml)
same,binding result,[17],no binding (tested: 10 ug/ml)
B4,EC50,[18],0.03 µg/mL
same,EC50,[19],0.04 µg/mL
same,EC50,[20],0.055 µg/mL
same,binding result,[21],no binding
same,binding result,[22],no binding
same,EC50,[23],0.03 µg/mL
same,binding result,[24],no binding
B5,EC50,[18],0.02 µg/mL
same,EC50,[19],0.02 µg/mL
same,EC50,[20],0.06 µg/mL
same,binding result,[21],no binding
same,binding result,[22],no binding
same,EC50,[23],0.02 µg/mL
same,binding result,[24],no binding
